{
  "source": "patent US20240343803A1",
  "about": "(SHANDONG SIMCERE BIOPHARMACEUTICAL, published 2024)",
  "key": {"[1]": {"biological_target": "T1, human PVRIG-mFc protein (Acro, PVG-H5253) (human, UniProt Q6DKI7 41-171, limits assumed)", "T1 construct": "bought reagent; also called PVRIG-ECD-mFc", "T1 sequence (looked up)": "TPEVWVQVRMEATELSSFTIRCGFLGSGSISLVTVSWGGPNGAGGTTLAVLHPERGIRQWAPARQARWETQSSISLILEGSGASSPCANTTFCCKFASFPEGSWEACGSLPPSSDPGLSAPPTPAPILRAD", "test": "competition FACS; blocked: PVRIG-mFc binding to CHO-K1 CD112 cells", "method": "The Ham's F12 (Gibico, 21127-022) complete medium containing 10% FBS was then added to stop the digestion and acquire cell suspension. After counting with a cell counter (Beckman Coulter, Vi-CELL), an appropriate amount of cell suspension was centrifuged at 350×g to remove the supernatant, washed twice with PBS, stained with Zombie violet (Biolegend, 423114) and incubated at room temperature for 20 minutes. After incubation, the cells were added with staining buffer (2% FBS+PBS) to stop staining, centrifuged at 350×g to remove the supernatant, washed twice and resuspended with staining buffer to a density of 2×10⁶ cells/mL. The cells were plated into a 96-well plate (50 μL of cell suspension per well) for further use. A working solution of human PVRIG-mFc protein (Acro, PVG-H5253) prepared with staining buffer, 1 μg/mL (four-fold concentration), was added into a 96-well plate (50 μL PVRIG-mFc working solution per well). […] The diluted antibodies were added to the well containing 50 μL of PVRIG-mFc. The plate was placed on a microplate shaker at 400 rpm for 1 minute to fully mix the antibodies and PVRIG-mFc proteins, and then incubated at 4° C. for 30 minutes. After the incubation, the cell suspension prepared above (100 μL) was added into the wells, gently mixed with the pipette tip and incubated at 4° C. for 30 minutes. After the incubation, the cells were washed twice with staining buffer (200 μL per well) and centrifuged at 350×g for 5 minutes to discard the supernatant. The PE goat anti-mouse IgG Fc antibody (Biolegend, 405337) was diluted 250 times with staining buffer, added into the washed wells (100 μL per well), mixed well, and stained at 4° C. for 30 minutes. After staining, the cells were washed twice with staining buffer, finally resuspended with 200 μL staining buffer and analyzed by flow cytometry (BD, Canto II). The weaker the fluorescence signal, the stronger the ability of the antibodies blocks the binding of CHO-K1 human CD112 cells to the PVRIG-mFc protein."}, "[2]": {"biological_target": "T2, cynomolgus monkey PVRIG on FlpinCHO-cyno PVRIG cells (cynomolgus monkey, UniProt A0A2K5WVV8 41-322)", "T2 construct": "whole, on cells; also called FlpinCHO-cynomolgus monkey PVRIG", "T2 sequence": "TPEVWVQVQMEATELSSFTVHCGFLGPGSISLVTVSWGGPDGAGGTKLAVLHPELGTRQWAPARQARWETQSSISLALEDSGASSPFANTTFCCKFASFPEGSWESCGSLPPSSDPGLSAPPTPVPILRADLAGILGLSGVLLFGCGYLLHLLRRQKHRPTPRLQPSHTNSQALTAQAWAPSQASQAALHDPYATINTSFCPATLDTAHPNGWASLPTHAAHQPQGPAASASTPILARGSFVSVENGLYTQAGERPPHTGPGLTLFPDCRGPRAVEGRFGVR", "test": "FACS, FlpinCHO cynomolgus monkey PVRIG cells", "method": "(§1) CHO-K1 stable cells ([…]-61™) transfected with human or cynomolgus monkey PVRIG high expression plasmids were named FlpinCHO-hPVRIG and FlpinCHO-cynoPVRIG. […] After discarding the cell culture medium, the cells were rinsed with PBS and digested for 8-10 minutes by adding 1 mL Versene (Gibico, 15040-066). The Ham's F12 (Gibico, 21127-022) complete medium containing 10% FBS was then added to terminate the digestion and acquire cell suspension. After cell counting, an appropriate amount of cell suspension was centrifuged at 350×g to remove the supernatant, washed twice with PBS, stained with Zombie violet (Biolegend, 423114) and incubated at room temperature for 20 minutes. After incubation, the cells were added with staining buffer (2% FBS+PBS) to stop staining, centrifuged at 350×g to remove the supernatant, washed twice and resuspended with staining buffer to a density of 2×10⁶ cells/mL. The cells were plated into a 96-well plate (50 μL of cell suspension per well) for further use. The antibodies were diluted from the highest concentration of 46 nM (two-fold concentration) with staining buffer by 3.3-fold serial dilution. The diluted antibodies were added to the well containing 50 μL of cell suspension. […] After staining, the cells were washed twice with staining buffer, finally resuspended with 200 μL staining buffer and analyzed by flow cytometry (BD, Canto II)."}, "[3]": {"biological_target": "T3, human PVRIG on FlpinCHO-PVRIG cells (human, UniProt Q6DKI7 41-326)", "T3 construct": "whole, on cells; also called FlpinCHO-hPVRIG; FlpinCHO-human PVRIG", "T3 sequence (looked up)": "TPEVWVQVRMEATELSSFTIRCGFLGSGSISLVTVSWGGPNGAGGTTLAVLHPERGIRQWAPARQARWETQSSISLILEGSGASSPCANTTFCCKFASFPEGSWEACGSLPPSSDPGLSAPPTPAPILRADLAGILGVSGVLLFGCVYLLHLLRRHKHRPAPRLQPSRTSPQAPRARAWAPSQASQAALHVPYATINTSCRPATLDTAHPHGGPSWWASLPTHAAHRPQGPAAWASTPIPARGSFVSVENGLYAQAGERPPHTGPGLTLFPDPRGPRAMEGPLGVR", "test": "FACS, FlpinCHO-hPVRIG cells", "method": "as §1"}},
  "data": [
    {"binder": "PVRIG-A105-H1 (VHH, humanized VHH; also called A105.VH1) VHH: EVQLVESGGGLVQPGGSLRLSCAASGRTFDRHTMSWFRQAPGKEREFVATASRIPGDTYYVDSVKGRFTISRDNAKNSLYLQMNSLRAEDTAVYYCAATSAYCSEVDCYEKGSWYDNWGQGTMVTVSS", "values": [
      {"measurement": "IC50 (read off the curve)", "setting": "[1]", "result": "~1", "unit": "nM"},
      {"measurement": "EC50 (read off the curve)", "setting": "[2]", "result": "~0.4", "unit": "nM"},
      {"measurement": "EC50 (read off the curve)", "setting": "[3]", "result": "~0.5", "unit": "nM"}
    ]}
  ]
}
